In paper PMC11488100, “PET imaging of CXCR4 expression using [^18F]AlF-NOTA-QHY-04 for hematologic malignancy and solid tumors” (Theranostics, 2024):
Bridge positions count the residues as written; N and C are the ends. Square brackets hold non-standard residues; d marks the D form. Peptide text beside a SMILES is read from it. * marks the point of attachment. NOTA = O=C(O)CN1CCN(CC(=O)O)CCN(CC(=O)*)CC1; 2Nal = N[C@@H](Cc1ccc2ccccc2c1)C(=O)O; Pen = CC(C)(S)[C@H](N)C(=O)O; 4Amb = NCc1ccc(C(=O)O)cc1; Ahx = NCCCCCC(=O)O

Columns and labels:
[1] = in vivo; cited from earlier work
From the text: (Figure 3A and 3B). In contrast, the blood, heart, liver, ...

[2] = parameters: species or system mice; conditions: mouse, in vivo
Experimental: The xenografted mice were injected with [^18F]AlF-NOTA-QHY-04 (3.70 ± 0.74 MBq) in about 150 μL saline via the tail vein. All the PET scans were performed with micro-PET/CT (IRIS PET/CT, Inviscan, France) and the radioactivity were expressed as %ID/mL. Detailed procedures for dynamic, static imaging and blocking studies are provided in the supplemental materials. Biodistribution studies were conducted using mice with xenografted A549/CXCR4 tumors with and without blocking (n = 3). The mice were sacrificed immediately after static PET/CT 1 h post injection (p.i.), then the tumors and organs were quickly collected, weighed and counted for radioactivity by a γ-counter. The γ-counter activity readings were background- and decay-corrected and represented as the percentage of injected dose per gram of tissue (%ID/g).

[3] = format: physicochemical; conditions: pH 7.4
Experimental: Synthesis of [18F]AlF-NOTA-QHY-04
Briefly, NOTA-QHY-04 was radiolabeled with [18F]F-, following procedures. 10-20
GBq [18F]F− produced by medical cyclotron (MINITRACE Cyclotron, GE, USA) was
captured with a QMA SepPak light cartridge (Waters Corporation, USA) and then eluted
with 300-500 μL saline (0.9% NaCl). Then, the saline containing [18F]F− was added to
reaction vial, followed by 6-12 μL AlCl3 (10 mM in 0.1M sodium acetate buffer, pH 4),
200 μL acetonitrile (≥ 99.9%, Sigma-Aldrich, USA), and 20-30 μL of NOTA-QHY-04
(20 mg/mL in metal-free water). The vial was heated for 10 min at 110°C. After cooling,
the reaction system was diluted with 10 mL of water and was transferred to a Qasis light
HLB cartridge (Waters Corporation, USA). The cartridge was then washed with 10 mL of
water to remove the free [18F]F−. Finally, the desired product was eluted and collected
with 0.6 mL of ethanol. The product was reconstituted in saline and passed through a 0.22
μm syringe filter (Pall Corporation, USA) into a sterile vial.
Octanol-water partition coefficient (logD)
The partition coefficient (logD) of [18F]AlF-NOTA-QHY-04 was determined in a […]
from each phase were measured for radioactivity using a γ-counter. […]
repeated three times to ensure the accuracy of the results. The logD was calculated by
dividing the average radioactivity in the 1 -octanol layer by that in the PBS layer, and the […]

Structure (SMILES): C[C@H](NC(=O)[C@H](CCCNC(=N)N)NC(=O)CCCCCNC(=O)c1ccc(CNC(=O)CN2CCN(CC(=O)O)CCN(CC(=O)O)CC2)cc1)C(=O)N[C@@H]1CSSC(C)(C)[C@@H](C(=O)O)NC(=O)[C@H](Cc2c[nH]cn2)NC(=O)[C@H](Cc2ccc3ccccc3c2)NC(=O)[C@H](CCCNC(=N)N)NC1=O [[^18F]AlF-NOTA-QHY-04] ({NOTA-4Amb-Ahx}-RA[dC]R[2Nal]H[Pen]-OH; disulfide 3-7)
- acute radiotoxicity [1]: no acute radiotoxicity
- Tumor-to-organ ratio T/Blood [2]: 3.63 ± 0.56
- Tumor-to-organ ratio T/Heart [2]: 7.77 ± 0.60
- Tumor-to-organ ratio T/Kidney [2]: 0.23 ± 0.05
- Tumor-to-organ ratio T/Liver [2]: 1.84 ± 0.17
- Tumor-to-organ ratio T/Muscle [2]: 10.94 ± 5.33
- logD [3]: -2.21 ± 0.06
